The values below come from the supplement of paper PMC9170038.

The data set has as its system MS2 coat protein. As to the kind of experiment: apparent KD of MS2 coat protein; designed switch direction (-1 OFF switch, 1 ON switch): 1; higher = weaker reporter binding. The method in brief:
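The buffer was Tris-HCl pH 7.5 with KCl, MgCl2, BSA, DTT, tRNA and Tween-20. In it, SNAP-549-labelled MS2 coat protein was titrated in doubling steps from 0.7 or 1.5 nM to 3 µM over chip-bound RNA switches transcribed by stalled E. coli RNA polymerase on Illumina chips. Apparent KD is the per-design median over clusters of curve fits to normalised fluorescence.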

Setting [1] is: input ligand: microRNA oligo, concentration not stated.
Where [2] appears, read: Eterna round: R95, input ligand: FMN 200 uM.
The mark [3] stands for this setting: Eterna round: R95, input ligand: microRNA oligo, concentration not stated.
Where [4] appears, read: Eterna round: R95, input ligand: none.

Regarding “GCUAGUAUAAUUGUCAACAUGAGGAUCACCCAUGUAUGUUGGCAGGAUAUCGUUUGCAAAGCAAACGAGAAGGGCUAAACUAGC [Mat - Same State NG 3 - JL Mod - D11] (Eterna round: R96, puzzle: Same State NG 3)”, the “apparent KD of MS2 coat protein” value (input ligand: FMN 200 uM) was determined as 61.3 nM, the “apparent KD of MS2 coat protein” value under setting [1] came out at 106 nM and the “apparent KD of MS2 coat protein” value (input ligand: none) was determined as 171 nM.
As for “UGUUGUUAAUUAGGAUAUGGUCACAUGAGGAUCACCCAUGUAAUGUCGAUGCUAUGUGGAUACGAUCAGAAGGAAUGGCUAACA [SameState NG2 #94] (Eterna round: R96, puzzle: Same State NG 2)”, the “apparent KD of MS2 coat protein” value came to 93.3 nM (input ligand: FMN 200 uM), 225 nM under setting [1] and 175 nM (input ligand: none).
In the case of “UGAAUAGUUACAGGAUAUGAGUUGUAAAUUGGGUCAGAAGGGUGGGUGUUUUGCGCGGUGUGUUACAUGAGGAUCACCCAUGUU [SameState NG1 #28] (Eterna round: R96, puzzle: Same State NG 1)”, the “apparent KD of MS2 coat protein” value was determined as 81.8 nM (input ligand: FMN 200 uM), 75.1 nM under setting [1] and 122 nM (input ligand: none).
Regarding “GCCAUCCAAUGAGGAUAUGGCACCGUUUCGGUGCCAGAAGGCAUGUCAAUUGACAUGAGGAUCACCCAUGUAUUAUGGAUGGCA [JL Fiskers NG1ss - 33 mod 2] (Eterna round: R96, puzzle: Same State NG 1)”, the “apparent KD of MS2 coat protein” value was 101 nM (input ligand: FMN 200 uM), 739 nM under setting [1] and 1390 nM (input ligand: none).
In the same order, the values of “GCUAGGAUAUGAAGAGGAUCACCCUUUAGAAGGAGCAUUAGCUAGGAUAUGAAGAGGAUCACCCUUUAGAAGGAGCACUACUCU [pwkr ssNG3 DX 2xF5 +2xFMN.7] (Eterna round: R96, puzzle: Same State NG 3)” are 531 nM, 286 nM and 292 nM.
In the same order, the values of “GUACAUAUCAGAGGAUAUCACGUCGAUUAGACGUGAGAAGGCUGAUCACACAUGAAUAUUAAUACAUGAGGAUCACCCAUGUAC [SSNG1/13-A2] (Eterna round: R96, puzzle: Same State NG 1)” are 16.9 nM, 28.5 nM and 37.2 nM.
On to “UUUAGAUCGCGAGGAUAUCGCGAGGAUCACCCGUGAGAAGGCGCAGAGCCGAGGAUCACCCGGCUGAUCCUGAGAAGGAGGUCA (Eterna round: R96, puzzle: Same State NG 1)”, for which the “apparent KD of MS2 coat protein” value by setting is: (input ligand: FMN 200 uM) 91.7 nM; under setting [1], 206 nM; (input ligand: none) 250 nM.
For the sequence “UGCUAUUGUAUAUUGGUGCAAGCUUUUUGACAUGAGGAUCACCCAUGUACUCGUCAUUAGCGCAGUCCGUAGACUGC (puzzle: Sensor for hsa-mir-208a)”, the “apparent KD of MS2 coat protein” value by setting is: under setting [2], 74.2 nM; under setting [3], 15.7 nM; under setting [4], 79 nM.
For the sequence “AGCAAAGCGACAGGAUAUGGUAAGGAUCUCUUACCAGAAGGGUCAAGUGCAUGACAUGAGGAUCACCCAUGUAGGUUGUUUACC [Eternabot solution 44] (Eterna round: R96, puzzle: Same State NG 1)”, the “apparent KD of MS2 coat protein” value by setting is: (input ligand: FMN 200 uM) 18.2 nM; under setting [1], 18.5 nM; (input ligand: none) 26.5 nM.
The corresponding values for “CUGCUCGUGUGAGGAUAUGCCGCCGUUUCGGCUGCAGAAGGUGCUACGUUACAUGAGGAUCACCCAUGUCUCUGUUGUUUCGUU [salish99_SSNG1_r04_947] (Eterna round: R96, puzzle: Same State NG 1)” are 20.2 nM, 19 nM and 22.8 nM.
Consider “GCGAGCGUACUUGCUACAUGAGGAUCACCCAUGUUUUAUGGACAGGAUAUGGUACCGUUUCGGUACCAGAAGGGUUCACAUGUA [JL SSNG3 3.83] (Eterna round: R96, puzzle: Same State NG 3)”, for which the “apparent KD of MS2 coat protein” value runs as follows: (input ligand: FMN 200 uM) 116 nM; under setting [1], 150 nM; (input ligand: none) 426 nM.
In the same order, the values of “AUAUGAGGAGCAGGAUAUGCGAAGAAGAAAGAAGUAGAAGGGCUCAUGGGACGACAUGAGGAUCACCCAUGUACUACCCGAUGA [AK SSNG1-V2-8] (Eterna round: R96, puzzle: Same State NG 1)” are 49.8 nM, 66.7 nM and 55.9 nM.
Consider “GUGGUCAGACAUGAGGAUCACCCAUGUGGAAUAAAUAACAGACAGGAUAUAUAAUAUAGGAUAUAGUAGAAGGGUCGAUUGGUG (Eterna round: R96, puzzle: Same State NG 3)”, for which the “apparent KD of MS2 coat protein” value under setting [1] was determined as 69.7 nM.
Take “GGGAGAGGCGCAGGAUAUGGUGAGGAUCACCCACUAGAAGGGUGCACAUGAGAAUCGAACAUGAGGAUCACCCAUGUUCUGAGC (Eterna round: R96, puzzle: Same State NG 1)”: the “apparent KD of MS2 coat protein” value by setting is: (input ligand: FMN 200 uM) 560 nM; under setting [1], 162 nM; (input ligand: none) 348 nM.
Take “UCUUGGUUUUUGCUCGUUUUUUGUGUUGAACAUGAGGAUCACCCAUGUAUUGUACAGUCCAGUUUAAUAAUGGUCCA [JMF 5] (puzzle: Sensor for hsa-mir-208a)”: the “apparent KD of MS2 coat protein” value was determined as 33.9 nM under setting [2], 24.6 nM under setting [3] and 48.8 nM under setting [4].
Consider “AACAAAUACACAGGAUAUACAGCGGCAGCCACUGUAGAAGGGUGGGCGGGUUCCAACAUGAGGAUCACCCAUGUACCCAAUAAA [Gerace] (Eterna round: R96, puzzle: Same State NG 1)”, for which the “apparent KD of MS2 coat protein” value (input ligand: FMN 200 uM) came to 161 nM, the “apparent KD of MS2 coat protein” value under setting [1] was 234 nM and the “apparent KD of MS2 coat protein” value (input ligand: none) was determined as 699 nM.
In the same order, the values of “AUUUGGUAACGAGGAUAUCGUUUUUGUUUUCUUCGAGAAGGCGUUAUUGUUUAUUUCUAUUGUUACAUGAGGAUCACCCAUGUU [JR_SSNG1_Sub056] (Eterna round: R96, puzzle: Same State NG 1)” are 15.4 nM, 19 nM and 21.7 nM.
Take “GGAGCCGGCACCGAGGAUAUUCAUAUUAAAACAUGAGGAUCACCCAUGUAGCUCGAAAGAGCUUGGGAGAAGGCGGAUCGGCUCG [Xeonanis - 29] (puzzle: Same State 2)”: the “apparent KD of MS2 coat protein” value is, setting by setting: under setting [2], 30.5 nM; under setting [3], 1010 nM; under setting [4], 827 nM.
Take “AGUCCAGCCUAAGCUGGACAAAAGCAUGUACAUGAGGAUCACCCAUGUUCAUGUACAAGCUUUUUGCAAGUCAAAAU [Mat - hsa-mir-208a - Mod of JL - 79] (Eterna round: R96, puzzle: Sensor for hsa-mir-208a)”: the “apparent KD of MS2 coat protein” value was 837 nM (input ligand: FMN 200 uM), 19.1 nM under setting [1] and 725 nM (input ligand: none).
“GAGGCACAUGAGGAUCACCCAUGUGGGUAUAACAUAGGAUAUCACCAACAAAAUACCCGGUGAGAAGGAUGAUGCC [Ravevele] (puzzle: Same State 1)”: the “apparent KD of MS2 coat protein” value under setting [3] is 158 nM.
In the case of “UAAUGUUAGCGAGGAUAUCGUUUAUUGAAGUUACGAGAAGGCGCUCUUCUUACAUGAGGAUCACCCAUGUCUGUUUUGCAUGAU [JR_SSNG1_Sub068] (Eterna round: R96, puzzle: Same State NG 1)”, the “apparent KD of MS2 coat protein” value under setting [1] is 50 nM.
Turning to “GUGGUGGGUUGAGGAUAUUGGUUGUUGUUGUCCCACAUGAGGAUCACCCAUGUGGGUUGUGGUUUUGAGAAGGUUGGUUGCCGG [salish99_SSNG2_r04_053] (Eterna round: R96, puzzle: Same State NG 2)”, the “apparent KD of MS2 coat protein” value under setting [1] was found to be 15 nM.
As for “UUCACCUUAUUUUACAUGAGGAUCACCCAUGUUUUUUUUACGUAGGAUAUCGAUGCUUGAUUGUUCGAGAAGGACGAUGUAAGU [JR_SSND3_Sub054] (Eterna round: R96, puzzle: Same State NG 3)”, the “apparent KD of MS2 coat protein” value reads like this: (input ligand: FMN 200 uM) 27.3 nM; under setting [1], 24.3 nM; (input ligand: none) 31.1 nM.
The corresponding values for “GCGAGCGUACUUGCAACAUGAGGAUCACCCAUGUUAACUGGACAGGAUAUGGUACCGUUUCGGUACCAGAAGGGUUUAUCAUGU [JL SSNG3 3.66] (Eterna round: R96, puzzle: Same State NG 3)” are 92.3 nM, 92.8 nM and 116 nM.
In the same order, the values of “GCGAGCGUACUUGCAACAUGAGGAUCACCCAUGUUAACUGGACAGGAUAUGGUACCGUUUCGGUACCAGAAGGGUUUUUCAUGG [JL SSNG3 3.64] (Eterna round: R96, puzzle: Same State NG 3)” are 85.6 nM, 50.6 nM and 74.3 nM.
As for “AGGUAACAUGAGGAUCACCCAUGUAAGGUGAACGUAGGAUAUCGAGGAGGUAGGGUAGGCCGAGAAGGACGAGGAG [JR_SS1_Sub093] (puzzle: Same State 1)”, under setting [3], the “apparent KD of MS2 coat protein” value is 221 nM.
Consider “GGUCCAGCCUGAGCUGGACAAAAGCAUGUACAUGAGGAUCACCCAUGUCAUGUGCAAGCUUUUUGCUCGUCUUAAAA [JL mod - D87 - 4] (puzzle: Sensor for hsa-mir-208a)”, for which the “apparent KD of MS2 coat protein” value under setting [2] worked out at 67.3 nM, the “apparent KD of MS2 coat protein” value under setting [3] came out at 11 nM and the “apparent KD of MS2 coat protein” value under setting [4] is 73.4 nM.
For “GCCGCGUUUCGCGCCUACAUGAGGAUCACCCAUGUUUGUAGGCAGGAUAUCGUUUGCUUUGCAGGCGAGAAGGGCUGUUGUGGC [salish99_SSNG3_R04_016] (Eterna round: R96, puzzle: Same State NG 3)”, the “apparent KD of MS2 coat protein” value reads like this: (input ligand: FMN 200 uM) 43 nM; under setting [1], 39.1 nM; (input ligand: none) 46.5 nM.
